Source: publication PMC4749557, “ETO family protein Mtgr1 mediates Prdm14 functions in stem cell maintenance and primordial germ cell formation” (eLife, 2015)
Positions count from the first letter of the chain named. Names and notes keep the numbering of the source.

T1: recombinant Prdm14 pre-SET+SET domains (residues 184–373) (mouse, UniProt E9Q3T6 184-373, biotin (biotin-acceptor tag))
T1 construct: gene assembled from synthetic oligonucleotides in the pHBT vector; a TEV site lies between the tags and the protein; also called mouse Prdm14; source: E. coli BL21 (DE3) with pBirACm and 50 μM biotin, purified (Ni-Sepharose); not shown: biotin-acceptor tag, N-terminal, kept
T1 sequence (looked up): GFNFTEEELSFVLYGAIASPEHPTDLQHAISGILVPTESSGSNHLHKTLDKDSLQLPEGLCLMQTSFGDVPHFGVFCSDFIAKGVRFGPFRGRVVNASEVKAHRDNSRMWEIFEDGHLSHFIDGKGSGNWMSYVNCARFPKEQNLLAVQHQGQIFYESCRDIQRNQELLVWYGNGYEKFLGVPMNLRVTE

T2: recombinant Prdm14 (residues 184–373) E294K (mouse, UniProt E9Q3T6 184-373, E294K, biotin (biotin-acceptor tag))
T2 construct: also called E294K Prdm14; source: E. coli BL21 (DE3) with pBirACm and 50 μM biotin, purified (Ni-Sepharose); not shown: biotin-acceptor tag, N-terminal, kept
T2 sequence (looked up): T1 sequence (looked up) with E111K

B1: recombinant Mtgr1 NHR1 domain (residues 98–206) (domain or fragment, mouse, UniProt O70374 98-206, looked up)
chain: LPATCGARQLSKLKRFLTTLQQFGNDISPEIGEKVRTLVLALVNSTVTIEEFHCKLQEATNFPLRPFVIPFLKANLPLLQRELLHCARAAKQTPSQYLAQHEKLLLNTS
modifications: biotin (biotin-acceptor tag)
notes: Mtgr1 (Cbfa2t2), residues 98–206 (NHR1/TAFH domain), with H200K from a cloning artifact; pHBT vector; a TEV site lies between the tags and the protein; also called wt Mtgr1; source: E. coli BL21 (DE3) with pBirACm and 50 μM biotin, purified (Ni-Sepharose); not shown: biotin-acceptor tag, N-terminal, kept
B2: recombinant Mtgr1 NHR1 domain (residues 98–206) K109E (domain or fragment, mouse, UniProt O70374 98-206, looked up)
chain: B1 chain with K12E
modifications: biotin (biotin-acceptor tag)
notes: Mtgr1 (Cbfa2t2), residues 98–206, K109E on the pHBT construct that carries H200K; also called Mtgr1(K109E); source: E. coli BL21 (DE3) with pBirACm and 50 μM biotin, purified (Ni-Sepharose); not shown: biotin-acceptor tag, N-terminal, kept
B3: human PRDM14 (residues 238–487) (domain or fragment, UniProt Q9GZV8 238-487, looked up)
chain: LPQTLDKDSLQLPEGLCLMQTVFGEVPHFGVFCSSFIAKGVRFGPFQGKVVNASEVKTYGDNSVMWEIFEDGHLSHFIDGKGGTGNWMSYVNCARFPKEQNLVAVQCQGHIFYESCKEIHQNQELLVWYGDCYEKFLDIPVSLQVTEPGKQPSGPSEESAEGYRCERCGKVFTYKYYRDKHLKYTPCVDKGDRKFPCSLCKRSFEKRDRLRIHILHVHEKHRPHKCSTCGKCFSQSSSLNKHMRVHSGDR
modifications: biotin (biotin-acceptor tag)
notes: vector based on p28BIOH-LIC; expression vector from the Structural Genomics Consortium; also called hPRDM14; source: E. coli BL21 (DE3) with pBirACm and 50 μM biotin, purified (Ni-Sepharose); not shown: biotin-acceptor tag, N-terminal, kept
B4: Mb(hPRDM14_S4) displayed on the yeast surface (designed binder)
chain: VSSVPTKLEVVAATPTSLLISWDAPAVTVDLYFITYGETGGNSPVQKFTVPGSKSTATISGLKPGVDYTITVYAQYYYRGWYVGSPISINYRT

Legend:
[1] = target: T1, recombinant Prdm14 pre-SET+SET domains …; experiment: bead-based binding assay; biotinylated Prdm14 immobilised on streptavidin M280 beads, biotinylated Mtgr1 (NHR1) in solution, detected with SAV-Dylight650 by flow cytometer; 50 mM Tris–HCl, 150 mM NaCl, pH 8, 1 mg/ml BSA, 1 mM EDTA, 0.1 mM DTT; 1:1 model; conditions: both partners purified
[2] = target: T2, recombinant Prdm14 (residues 184–373) …; experiment: bead-based binding assay; biotinylated Mtgr1 (NHR1) immobilised on streptavidin M280 beads, biotinylated Prdm14 in solution, detected with SAV-Dylight650 by flow cytometer; 50 mM Tris–HCl, 150 mM NaCl, pH 8, 1 mg/ml BSA, 1 mM EDTA, 0.1 mM DTT; 1:1 model; conditions: both partners purified
[3] = target: B4; experiment: yeast surface display; monobodies on the yeast surface with 50 nM of hPRDM14 or a homologue; conditions: one partner purified
[4] = target: B3; experiment: yeast surface display; KD of monobody clones displayed on yeast for hPRDM14; conditions: one partner purified

Binder: B1
- binding result [1]: binds

Binder: B2
- binding result [2]: binds

Binder: B3
- fold stronger binding than hPRDM6 and hPRDM12 [3]: ≥ 5 fold

Binder: B4
- Kd [4]: < 100 nM
